According to PMC7993378, “Inhibition of bacterial and human zinc-metalloproteases by bisphosphonate- and catechol-containing compounds” (Journal of Enzyme Inhibition and Medicinal Chemistry, 2021):

Test system: COc1ccc2c(CC(=O)N[C@@H](CCCNC(=N)N)C(=O)N3CCC[C@H]3C(=O)N3CCC[C@H]3C(=O)NCC(=O)N[C@@H](Cc3ccccc3)C(=O)N[C@@H](CO)C(=O)N[C@@H](C)C(=O)N[C@@H](Cc3ccccc3)C(=O)N[C@@H](CCCCNc3ccc([N+](=O)[O-])cc3[N+](=O)[O-])C(=O)O)cc(=O)oc2c1
Assay: Km determination of McaRPPGFSAFK(Dnp)-OH with TLN
Format: biochemical, Bacillus thermoproteolyticus
Conditions: other: 2% DMSO; pH 7.5
Description: The estimated Km values for ALN and PLN must be regarded as uncertain since the highest substrate concentration used was 10 µM due to quenching. The obtained Km values are very similar to those previously obtained for theses enzymes without DMSO[57] or with a DMSO concentration of 5%[58]. Previously it was reported that TLN is inactivated in most organic cosolvents, but can tolerate up to 10% DMSO to enhance substrate solubility. For TLN, the Km value was also determined with a DMSO concentration of 2%.
Km values were determined for McaPLGL(Dpa)AR-NH2 with APMA-activated recombinant MMP-9 (rMMP-9(A)), trypsin-activated MMP-9 from THP-1 cells (MMP-9(T)) and MMP-14, and for McaRPPGFSAFK(Dnp)-OH with ALN, PLN and TLN. Substrate concentrations used were 1–10 µM in a total volume of 100 µL of 0.1 M Hepes pH 7.5 containing 10 mM CaCl2, 0.005% Brij-35 and 1.0% DMSO. […] Initial rate experiments were performed as described above for the determination of enzyme activity of MMP-9 during activation and the same excitation and emission wavelengths were used for both substrates.

## TLN (Bacillus thermoproteolyticus)
  Km: 7 ± 1 µM
